Here are results for 3 molecules from PMC8854693, “Development and characterization of functional antibodies targeting NMDA receptors” (Nature Communications, 2022).

Test [1] deals with T1, purified intact rat GluN1a-GluN2B NMDA receptor (Rattus norvegicus, UniProt P35439;Q00960).
T1 construct: rat GluN1a (GluN1-1a splice variant, without the exon 5-encoded motif); called intact; rat GluN2B; the immunogen and the ELISA antigen
Put plainly: ELISA; 96-well MaxiSorp plates covered by the GluN1a-GluN2B NMDAR proteins, in the presence of 0.005% LMNG (methods; 0.01% in the results); state of the IgG not told.

Test [2] addresses T2, intact GluN1b-GluN2B NMDA receptor (Rattus norvegicus, strain).
T2 construct: called intact; density seen for ATD, LBD and TMD; rat GluN2B; heterotetramer; Also used here for the functional rows on receptors expressed in oocytes or HEK293 cells from wild-type rat cRNA or cDNA; also called GluN1-1b-GluN2B; GluN1b-2B; source: Sf9 insect cells (EarlyBac), solubilised in 0.5% LMNG, purified (Strep-Tactin Sepharose, Superose 6); copies: 2 + 2
Put plainly: cryo-EM structure; receptor mixed with Fab at 1:3 (w:w), purified on Superose 6; 1 mM glycine and 1 mM glutamate; 0.002% LMNG, 0.1% digitonin. To be noted: both partners purified.

B1: IgG2, mouse monoclonal antibody against the GluN1-GluN2B NMDA receptor (antibody, V domains shown)
VH: DVKLQESGGGLVQPGGSLKLSCAASGFTFSSYTMSWVRQTPEKRLEWVAYISNGGGGTYYPDTVKGRFTISRDNAKNTLYLQMNSLKEDTAMYYCARPSRGGSSYWYFDVWGAGTTVTVSS
VL: DIQMTQSPSSLSASLGGKVTITCKASQDINKYIAWYQHKPGKGPRLLIHYTSSLQPGIPSRFSGSGSGRDYSFSISNLEPEDIATYYCLQYDNLYTFGGGTKLEIK
notes: the Fab part of the heavy chain is in the crystal structure of Fab2 (PDB 7TE4) and in the cryo-EM models; the light chain is in the crystal structure of Fab2 (PDB 7TE4) and in the cryo-EM models; mouse immunoglobulin-gamma; raised against purified intact rat GluN1a-GluN2B NMDAR; source: hybridoma cell culture supernatant, purified (rProtein-A Sepharose)
As for B1, in test [1], the binding result is “binds”.

B2: Fab2, antigen-binding fragment of IgG2 (Fab, V domains shown)
VH: B1 VH
VL: B1 VL
notes: heavy chain of the crystal structure of Fab2 (PDB 7TE4); as the Fab part of the heavy chain of m1; light chain of the crystal structure of Fab2 (PDB 7TE4); as the light chain of m1; source: papain proteolysis of purified IgG2, Fc removed on rProtein-A Sepharose
Take B2: in test [2], the “stoichiometry N” value was 2 Fab2 per heterotetrameric channel.

B3: IgG5, mouse monoclonal antibody against the GluN1-GluN2B NMDA receptor (antibody, V domains shown)
VH: DVKLQESGGGSVKLGGSLKLSCVVSGFTFSTYYMSWVRQTPEKRLELVAVINSNGGNTYYPDNVKGRFTISRDNAENTLYLQMSSLKSEDTALYYCARRDYDGFAMDYWGQGTSVTVSS
VL: DIQLTQSPASLAVSLGQRATISCRASQSVSTSRYSYMHWYQHKPGQPPKLLIKYASNLESGVPARFSGSGSGTDFTLNIHPVEEEDTATYYCQHSWENPYTFGGGTKLEIK
notes: the Fab part of the heavy chain is in the crystal structure of GluN1b-GluN2B ATD-Fab5 (PDB 7TE6) and in the cryo-EM models; the light chain is in the crystal structure of GluN1b-GluN2B ATD-Fab5 (PDB 7TE6) and in the cryo-EM models; mouse immunoglobulin-gamma; source: hybridoma cell culture supernatant, purified (rProtein-A Sepharose)
For B3, the binding result in test [1] is “binds”.
